This is an account of results in paper PMC9191634.

pKi: −log10 of the molar value. Where “and” joins values, the source holds several entries; their conditions need not be identical. Identical values can stand only once.

Test [1] addresses C6 peptide. In words: whole-cell patch clamp. As to conditions: +40 mV, HEK293T cells; for ratio to parent: parent: est. 1.0, read off a plot.
The target in test [2] is human voltage-gated proton channel hHv1 (human) (UniProt Q96D96).
For test [3], the target named is hHv1-H193C (human) (UniProt Q96D96). Description: whole-cell patch clamp (block of H+ current).
For test [4], the target named is hHv1-G199C (human) (UniProt Q96D96). Description: whole-cell patch clamp (block of H+ current).
The target in test [5] is hHv1-E196C (human) (UniProt Q96D96). In words: whole-cell patch clamp (block of H+ current).
For test [6], the target named is hHv1-E192C (human) (UniProt Q96D96). In words: whole-cell patch clamp (block of H+ current).
Test [7] deals with hHv1-L203C (human) (UniProt Q96D96). Description: whole-cell patch clamp (block of H+ current).
Test [8] has as its target hHv1-D185C (human) (UniProt Q96D96). In words: whole-cell patch clamp (block of H+ current).
In test [9] the target is hHv1-L200C (human) (UniProt Q96D96). Description: whole-cell patch clamp (block of H+ current).
In test [10] the target is hHv1-R211S (human) (UniProt Q96D96). Description: whole-cell patch clamp (block of H+ current).
Test [11] addresses hHv1-V187C (human) (UniProt Q96D96). In words: whole-cell patch clamp (block of H+ current).
The target of test [12] is hHv1-R205N (human) (UniProt Q96D96). In words: whole-cell patch clamp (block of H+ current).
In test [13] the target is human voltage-gated proton channel hHv1 (human) (UniProt Q96D96). Description: whole-cell patch clamp (block of H+ current).
The target is the same in test [14]. In words: whole-cell patch clamp (block of H+ current); as a1 but test pulses to +20 mV.
Test [15] concerns the target human voltage-gated proton channel hHv1, Q96D96-1. In words: whole-cell patch clamp. As to conditions: +40 mV; HEK293T cells; parent: 0.031 ± 0.003 µM.

“human voltage-gated proton channel hHv1 (from UniProt Q96D96-1) I183C”: the ratio to parent in [1] worked out at 1.1.
Still for that read-out and setting: the result for “human voltage-gated proton channel hHv1 (from UniProt Q96D96-1) I186C” reads 1.4.
Same read-out and setting: the value for “human voltage-gated proton channel hHv1 (from UniProt Q96D96-1) L184C” was 22.
In the case of C6 peptide (designed binder), in [2], the fraction of H+ current blocked by 250 nM C6, whole-cell patch clamp in HEK293T cells, -20 mV to +40 mV stood at 90%. Also, the Ki mutation/Ki WT in [3], in [5], in test [6], in [9] and in test [11] was > 43 fold throughout. The pKi in [4] is 8.72; in test [10], 9.22; in test [12], 6.79; in test [14], 8.31. Further, the fold enhancement of C6 inhibition against WT hHv1 in [7] and in test [8] was > 4 fold throughout. Also, the figures for the koff in test [10], in test [12] and in test [14] were 0.0008 s⁻¹, 0.19 s⁻¹ and 0.0043 s⁻¹, respectively. Besides, the kon in test [10] is 500000 M⁻¹ s⁻¹; in test [12], 300000 M⁻¹ s⁻¹; in test [13] it was 300000 M⁻¹ s⁻¹ and 500000 M⁻¹ s⁻¹; in test [14] it was 400000 M⁻¹ s⁻¹.
C6 peptide R36A: the pKi in [15] is 4.82.
In the case of “human voltage-gated proton channel hHv1 (from UniProt Q96D96-1) Q194C”, the ratio to parent in test [1] is 6.
Consider “human voltage-gated proton channel hHv1 (from UniProt Q96D96-1) E192A”, for which, in test [1] (parent: 0.031 ± 0.003 µM), the pKi was 4.74.
Take “human voltage-gated proton channel hHv1 (from UniProt Q96D96-1) L201C”: in test [1], the ratio to parent was 3.6.
The same measure, in the same setting: the result for “human voltage-gated proton channel hHv1 (from UniProt Q96D96-1) V187A” reads 130; that for “human voltage-gated proton channel hHv1 (from UniProt Q96D96-1) L188C”, 11.
Still for that read-out and setting: the value for “human voltage-gated proton channel hHv1 (from UniProt Q96D96-1) A197C” was 7.6.
Still for that read-out and setting: the result for “human voltage-gated proton channel hHv1 (from UniProt Q96D96-1) L203A” reads 0.28; that for “human voltage-gated proton channel hHv1 (from UniProt Q96D96-1) L204C”, 2.3.
For “human voltage-gated proton channel hHv1 (from UniProt Q96D96-1) I202C”, the ratio to parent in [1] was 30.
On the same count and under the same terms, the result for “human voltage-gated proton channel hHv1 (from UniProt Q96D96-1) L189A” reads 0.87; that for “human voltage-gated proton channel hHv1 (from UniProt Q96D96-1) F190C”, 0.62.
As for “human voltage-gated proton channel hHv1 (from UniProt Q96D96-1) F195C”, the ratio to parent in test [1] came out at 3.6.
On the same count and under the same terms, the result for “human voltage-gated proton channel hHv1 (from UniProt Q96D96-1) Q191C” reads 8.7; that for “human voltage-gated proton channel hHv1 (from UniProt Q96D96-1) L198C”, 1.4.
